Measured values: patent publication US20070292909A1 (RIKEN, published 2007)

B1: cmkeima 620 (other)
chain: MRGSHHHHHHGMASMTGGQQMGRDLYDDDDKDPMVSVIAKQMTYKVYMSGTVNGHYFEVEGDGKGKPYEGEQTVKLTVTKGGPLPFAWDILSPQFQYGSIPFTKYPEDIPDYFKQSFPEGYTWERSMNFEDGAVCTVSNDSSIQGNCFIYNVKISGENFPPNGPVMQKKTQGWEPSTERLFARDGMLIGNDYMALKLEGGGHYLCEFKSTYKAKKPVRMPGRHEIDRKLDVTSHNRDYTSVEQCEIAIARHSLLG
B2: monomerized Kusabira-Orange (mKO) (other)
chain: MVSVIKPEMKMRYYMDGSVNGHEFTIEGEGTGRPYEGHQEMTLRVTMAKGGPMPFAFDLVSHVFCYGHRPFTKYPEEIPDYFKQAFPEGLSWERSLEFEDGGSASVSAHISLRGNTFYHKSKFTGVNFPADGPIMQNQSVDWEPSTEKITASDGVLKGDVTMYLKLEGGGNHKCQFKTTYKAAKKILKMPGSHYISHRLVRKTEGNITELVEDAVAHS
notes: also called KO mutant

Key:
[1] = molecular target: the molecule itself; assay: ultracentrifugal molecular weight measurement of self-association
[2] = molecular target: the molecule itself; assay: ultracentrifugal analysis of self-association: 28 kDa measured, 26 kDa predicted
Method: An mKO protein solution with the composition consisting of 150 mM KCl and 50 mM HEPES-KOH (pH 7.4) was prepared. The molecular weight of mKO was determined by ultracentrifugal analysis. The above solution was centrifuged with an ultracentrifuge XL-1 (Beckman Coulter) at 25,000 rpm for 22 hours, so as to measure absorption at 540 nm around the maximum absorption (548 nm) of mKO. From the measurement results, the molecular weight of mKO was calculated to be 28 kDa (FIG. 3). This value was almost the same as 26 kDa predicted from the amino acid sequence, and thus it was confirmed that mKO exists in the form of a monomer.

| Protein | binding result [1] | binding result [2] |
| --- | --- | --- |
| B1 | no binding |  |
| B2 |  | no binding |
